No end group written: not given here. *: point of attachment. Biotin = O=C1N[C@H]2[C@H](CS[C@H]2CCCCC(=O)*)N1
How the values were obtained:
[1] = target: T1, Biotin PSGL-1(42-62) F53A peptide (C-terminal Lys-biotin); assay: ELISA; against wild-type PSGL-1 42-62
T1 peptide: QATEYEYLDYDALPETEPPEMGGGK

[2] = target: T2, Biotin PSGL-1(42-62) L49A peptide (C-terminal Lys-biotin); assay: ELISA; against wild-type PSGL-1 42-62
T2 peptide: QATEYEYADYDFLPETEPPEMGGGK

[3] = target: PSGL-1(ECD)-hFc1 M119A protein (Sino Biological) (human); assay: ELISA, plate-bound peptide or protein
Experimental: (§1) A typical ELISA experiment involved binding of a single concentration or serially diluted mAb in assay buffer (3% BSA in PBS containing 0.05% Tween®20, pH 7.4) onto BSA blocked high binding microtiter plate half-wells (Corning Cat. #3690), which contained PSGL-1 protein or streptavidin-immobilized biotin peptide. After incubation for 45 min. at 37° C., the plate was washed 3 times with wash buffer (PBS containing 0.05% Tween®20, pH 7.4), and an appropriate HRP-conjugated secondary antibody added (25 ul/well) (HRP goat anti-mouse or anti-human IgG). After 45 min. incubation at 37° C., the plate was washed and antibody bound to plate-immobilized target was determined at A450 nm using HRP substrate (3,3′5,5′-tetramethylbenzidine (TMB)). For each antibody, duplicate values were averaged and assay background subtracted.

[4] = target: PSGL-1(ECD)-hFc1 S116A protein (Sino Biological) (human); assay: ELISA, plate-bound peptide or protein
Experimental: as §1

[5] = target: PSGL-1(ECD)-hFc1 I121A protein (Sino Biological) (human); assay: ELISA, plate-bound peptide or protein
Experimental: as §1

[6] = target: T3, Recombinant human PSGL-1(ECD)-hFc1 (R&D Systems, Cat. 3345-PS) (human, UniProt Q14242 42-305); assay: Octet tandem; competitor 19J23
T3 construct: Bought; Gln42-Val295 counted on AAC50061; also called PSGL-1-Fc; PSGL-1-hFc1 chimera; not shown: human IgG1 Fc, Pro100-Lys330
T3 sequence: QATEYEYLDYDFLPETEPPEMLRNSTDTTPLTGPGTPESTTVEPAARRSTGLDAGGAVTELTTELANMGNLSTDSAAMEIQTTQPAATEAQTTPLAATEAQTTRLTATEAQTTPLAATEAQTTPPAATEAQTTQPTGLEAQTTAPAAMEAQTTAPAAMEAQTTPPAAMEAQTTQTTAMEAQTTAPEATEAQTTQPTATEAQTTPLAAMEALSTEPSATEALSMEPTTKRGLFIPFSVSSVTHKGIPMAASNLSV
Experimental: (§2) Antibody binning was performed by ForteBio Octet® using a tandem assay format, with anti-human IgG biosensor-immobilized PSGL-1(ECD)-hFc1 protein, binding of competitor mAb followed by analyte antibody. As competition controls, the same antibody was competed against itself, and mAb competition was performed bidirectionally.
(§3) Antibody binning by tandem octet was performed by immobilizing 10 ug/mL PSGL-1(ECD)-hFc1 (R&D Systems, Cat. #3345-PS) in PBS, pH 7.4, onto anti-human IgG capture biosensors (ForteBio, Cat. #18-5060), binding of 100 nM competitor antibody for 300 sec., followed by binding of 100 nM of analyte mAb for 300 s in kinetic buffer (0.1% BSA in PBS containing 0.02% tween 20 and 0.05% sodium azide, pH 7.4). Synagis (Johnson et al. (1997) J. Infect. Dis. 176:1215-1224) served as a negative control mAb for competition. An Fc quench step (0.25 mg/mL human IgG Fcl; BioXcell, Cat. #BE0096, in kinetic buffer) was included when human mAbs were tested to prevent high background from the antibodies binding to the anti-human IgG biosensor. Biosensor regeneration buffer consisted of 10 mM glycine, pH 2.0.

[7] = target: T3, Recombinant human PSGL-1(ECD)-hFc1 (R&D …); assay: Octet tandem; competitor 18K07
Experimental: as §2, §3

[8] = target: T3, Recombinant human PSGL-1(ECD)-hFc1 (R&D …); assay: Octet tandem; competitor 15A7
Experimental: as §2, §3

[9] = target: T4, PSGL-1 endogenously expressed on HL-60 cells (UniProt Q14242 42-412); assay: flow cytometry on HL-60 cells
T4 construct: whole, on cells
T4 sequence (looked up): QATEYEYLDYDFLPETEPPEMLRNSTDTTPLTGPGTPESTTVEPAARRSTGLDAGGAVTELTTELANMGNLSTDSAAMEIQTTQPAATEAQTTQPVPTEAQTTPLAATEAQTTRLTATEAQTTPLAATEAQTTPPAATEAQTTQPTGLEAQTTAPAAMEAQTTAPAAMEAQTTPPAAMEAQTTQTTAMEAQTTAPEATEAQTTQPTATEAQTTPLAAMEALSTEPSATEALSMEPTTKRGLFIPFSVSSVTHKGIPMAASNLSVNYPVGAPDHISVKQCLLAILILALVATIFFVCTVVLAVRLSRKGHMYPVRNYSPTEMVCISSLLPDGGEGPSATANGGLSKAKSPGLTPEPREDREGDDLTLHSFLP
Experimental: A typical flow cytometry assay was performed by resuspending HL-60 cells in FACS buffer (5% FBS and 0.05% Sodium Azide in PBS, pH 7.2) on ice, pelleting cells by centrifugation at 500×g for 3 min, washing cells with FACS buffer, and then blocking Fc receptors on the cells with Fc block (human TruStain FcX™, BioLegend Cat. #422302) on ice for 10 min. After washing, 50,000 cells/50 ul in FACS buffer was added to each well of a 96-well round bottomed plate (Costar, Cat. #3797), and 50 ul of serially diluted (0.06 nM-1.0 uM) test or isotype control antibody was added into duplicate wells. The plate was covered and incubated on ice for 1 h. After washing, Phycoerythrin (PE) conjugated anti-human IgG secondary antibody (Abcam; Cat. #ab99825) was added to each well and the plate incubated in the dark on ice for 30 min. After washing, the cells were fixed (1% paraformaldhyde).

[10] = target: T5, Biotin PSGL-1(42-62) Y51A peptide (C-terminal Lys-biotin); assay: ELISA; against wild-type PSGL-1 42-62
T5 peptide: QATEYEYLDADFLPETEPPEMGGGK

[11] = target: T6, Biotin PSGL-1(56-70) peptide (human); assay: ELISA, plate-bound biotin peptide
T6 peptide: Ac-ETEPPEMLRNSTDTTGK(Biotin)

B1: 19I01 (antibody, V domains shown)
VH: EVQLVESGGGLVKPGGSRKLSCAASGFTFSDYGMHWVRQAPEKGLEWVAYISSGSSTIYYADTVKGRFTISRDNAKNTLFLQMTSLRSEDTAMYYCARGVDGYWGQGTTLTVSS
VL: DVVMTQTPLSLPVSLGDQASISCRSSQSLVHSNGNTYLHWYLQKPGQSPKFLIYKVSNRFSGVPDRFSGSGSGTDFTLKISRVEAEDLGVYFCSQTTHVPLTFGAGTKLELK
notes: From mouse immunisation; only variable domains given; also called 19101
- EC50Ala/EC50 wt [1]: 24.6 fold

B2: 43B6 (antibody, V domains shown)
VH: EVQLQQSGPDLVKPGALVKISCKASGYSFTAYYIHWVKQSHGKSLEWIGRVNPNTGGTSYNPKFKGKAILNVDKSSSTAYMELRSLTSEDSAVYYCARSGSPYYRYDDWGQGTTLTVSS
VL: ENVLTQSPAIMSASPGEKVTMTCRASSTVNSTYLHWFQQKSGASPKLWIYGSSNLASGVPARFSGSGSGTSYSLTISSVEAEDAATYYCQQYSGYPLTFGAGTTLELK
notes: Control anti-PSGL-1 mAb, recombinant; only variable domains given; also called 43B3
- EC50Ala/EC50 wt [2]: 12.2 fold

B3: 18K07 (antibody, V domains shown)
VH: QIQLVQSGPELKKPGETVKISCEASGYTFTTYGMNWVKQAPGKGLKWMGWINTYSGVPTYADDFQGRFAFSVETSATTAYLQINNLKNEDAATYFCARSDDTYYGFAYWGQGTLVTVSA
VL: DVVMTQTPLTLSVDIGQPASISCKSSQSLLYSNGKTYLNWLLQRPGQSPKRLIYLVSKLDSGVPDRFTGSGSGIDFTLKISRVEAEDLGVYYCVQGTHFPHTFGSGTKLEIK
notes: From mouse immunisation; only variable domains given
- EC50 [3]: 0.46 nM
- EC50 [4]: 0.58 nM
- EC50 [5]: 0.51 nM
- % binding of analyte mAb [6]: 92.9%
- % binding of analyte mAb [7]: 35.2%
- % binding of analyte mAb [8]: 23.9%

B4: 20I15 (antibody, V domains shown)
VH: EVKLVESGGGLVQPGGSLSLSCAASGFTFTDYYMSWVRQPPGKALEWLGFIRNKANGYTTEYSASVKGRFTISRDNSQSILYLQMNALRAEDSATYYCARTYLRRGYFDVWGTGTTVTVSS
VL: DIVLTQSPASLAVSLGQRATISCRASKSVSTSGYSYMHWFQQKPGQPPKLLIYLASNLESGVPARFSGSGSGTDFTLNIHPVEEEDAATYYCQHSRELPLTFGAGTKLELK
notes: From mouse immunisation; only variable domains given; also called 20115
- EC50 [9]: 1.4 nM

B5: 16L15 (antibody, V domains shown)
VH: DVKLVESGGGLVKLGGSLKLSCAASGFTFSSYYMSWVRQTPEKRLEWVATISNGGGSTYYPDSVKDRFTISRDNAKNTLYLQMSSLNSEDTAVYYCAKPLYYSNPWFAYWGQGTLVTVSA
VL: DVLLTQTPLSLPVSLGDQASISCRSSQSIVHSNGNTYLEWYLQKPGQSPKLLIYKVSNRFSGVPDRFSGSGSGTDFTLKISRVEAEDLGVYYCFQGSHVPRTFGGGTKLEIK
notes: as for B3
- EC50Ala/EC50 wt [10]: 9.3 fold
- EC50Ala/EC50 wt [2]: 3.6 fold

B6: 9F9 (antibody, V domains shown)
VH: EVQLVETGGGLVQPKGSLKLSCAASGFTFNTNAMNWVRQAPGKGLEWVARIRSKSNNYATYYADSVKDRFTISRDDTQSMIYLQMNNLKTEDTGMYYCVRGGSYWYFDVWGAGTTVTVSS
VL: DVLMTQTPLSLPVSLGDQASISCRSSQSIVNSNGNTYLEWYLQKPGQSPKLLIYKVSNRFSGVPDRFSGSGSGTDFTLKISRVEAEDLGVYYCFQGSHVPWTFGGGTKLEIK
notes: Control anti-PSGL-1 mAb, recombinant; only variable domains given; also called 9F6
- EC50Ala/EC50 wt [10]: 10.8 fold

B7: 18F02 (antibody, V domains shown)
VH: QVQLQQPGAELVKPGASVKLSCKASGYTFTSYWMHWVKQRPGQGLEWIGMIHPNSGRTNYNEKFKSKATLTVDKSSSTAYMQLSSLTSEDSAVYYCARSDYWGQGTTLTVSS
VL: DIVMTQAAFSNPVTLGTSASISCRSSKSLLHSDGITYLYWFLQRPGQSPQLLIYRMSNLASGVPDRFSGSGSGTDFTLRISRVEAEDVGVYYCAQMLEFPRTFGGGTKLEIK
notes: as for B3
- EC50Ala/EC50 wt [1]: 59.2 fold

B8: 16E17 (antibody, V domains shown)
VH: QIQLVQSGPELKKPGETVKISCKASGYAFTTYGMSWVKQAPGKGLKWMGWINTYSGVPKYADDFKGRFAFSLETSASTAYLHINNLKNEDTATYFCGRHYYGSSYFDYWGQGTTLTVSS
VL: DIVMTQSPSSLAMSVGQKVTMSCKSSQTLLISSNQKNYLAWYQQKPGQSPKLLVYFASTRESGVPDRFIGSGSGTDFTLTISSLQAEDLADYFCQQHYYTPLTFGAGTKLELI
notes: as for B3
- EC50 [3]: 0.87 nM
- EC50 [4]: 0.8 nM
- EC50 [5]: 1.54 nM
- % binding of analyte mAb [6]: 103%
- % binding of analyte mAb [7]: 67.4%
- % binding of analyte mAb [8]: 21%

B9: 19L04 (antibody, IgG4, V domains shown)
VH: QIQLVQSGPELKKPGETVKISCKASGYTFTTYGMSWVKQAPGKGLKWMGWINTYSGVPTYADDFKGRFAFSLETSASTAYLQINNLKIEDTATYFCARHYYGSHYFDYWGQGTTLTVSS
VL: DIMMTQSPSSLAMSVGQKVTLRCKSSQSLLNSSNQKNYLAWYQQKPGQSPKLLVYFASTRESGVPVRFIGSGSGTDFTLTISSMQAEDLADYFCQQHYFSPLTFGAGTKLELK
notes: as for B3
- EC50 [3]: 0.86 nM
- EC50 [4]: 0.98 nM
- EC50 [5]: 0.97 nM
- % binding of analyte mAb [6]: 104%
- % binding of analyte mAb [7]: 50.5%
- % binding of analyte mAb [8]: 28.3%
- EC50 [9]: 2 nM

B10: 19N05 (antibody, V domains shown)
VH: QIQLVQSGPELKKPGETVKISCKASGYTFTTYGMSWVKQAPGKGLKWMGWINTYSGVPTFADDFKGRFAFSLETSASTAYLQINNLKNEDTATFFCARNYYGNHYFDYWGQGTTLTVSS
VL: DVQITQSPSYLAASPGETISINCRASNNINKYLAWYQEKPGKTNKLLIYSGSTLQSGIPSRFSGSGSGTDFTLTISSLEPEDFAMYHCQQHNYYPLTFGAGTKLELK
notes: as for B3
- EC50 [3]: 0.51 nM
- EC50 [4]: 0.55 nM
- EC50 [5]: 0.53 nM
- % binding of analyte mAb [6]: 125%
- % binding of analyte mAb [7]: 0%
- % binding of analyte mAb [8]: 36%

B11: 5E12 (antibody, V domains shown)
VH: EIQLQQSGAELVRPGASVKLSCTASGFNIKDDYIHWVKQRPEQGLEWIGRIDPANGNTKSAPKFQDKATITADTSSNTAYLHLSSLTSEDTAVYYCSIRFAYWGQGTLVTVSA
VL: DVVMTQTPLSLSVSLGDQASISCRSSQSLVYRNGDTYLHWFLQKPGQSPKLLIYKVSNRFSGVPDRFSGSGSGTDFTLKISRVEAEDLGIYFCSQNTHVPYTFGGGTKLEIK
notes: Mouse hybridoma mAb; only variable domains given
- binding result [11]: binds

Reference: patent US20220396632A1 (VERSEAU THERAPEUTICS, published 2022)
